The target of data set [1] is X. laevis 2×FLAG-TEV-NEDD1-3C-GCP3(1–240)/ALFA-MZT1 complex (X. laevis) (UniProt O73787). The data set is described as follows: mass photometry; Refeyn TwoMP; purified NEDD1-N-GCP3/MZT1 diluted to a final concentration below 40 nM; tetramer of the fusion/MZT1 protomer.
The target in data set [2] is T1, human Augmin TII N-clamp with HAUS8∆[1-138] (human, UniProt Q9NVX0 1-118; Q7Z4H7 1-269; Q99871 1-299; Q9BT25 139-248).
T1 construct: HAUS2, human, codons 1 to 118; HAUS6, human, codons 1 to 269; HAUS7, human, codons 1 to 299, followed by a TEV-EGFP-8xHis cleavable tag; HAUS8, human, codons 1 to 248 with the N-terminal truncation HAUS8∆[1-138]; The range 139-248 of HAUS8 is worked out from the printed limits 1 to 248 and the deletion 1-138; also called Augmin N-clamp; Augmin TII N-clamp∆H8N; source: E. coli BL21 CodonPlus-RIL, …
T1 sequence (Q9NVX0 1-118, chain 1 of 4): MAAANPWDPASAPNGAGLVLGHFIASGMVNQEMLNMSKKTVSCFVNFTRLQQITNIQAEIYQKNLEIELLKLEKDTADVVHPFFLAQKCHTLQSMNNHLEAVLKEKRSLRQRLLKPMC
T1 sequence (Q7Z4H7 1-269, chain 2 of 4): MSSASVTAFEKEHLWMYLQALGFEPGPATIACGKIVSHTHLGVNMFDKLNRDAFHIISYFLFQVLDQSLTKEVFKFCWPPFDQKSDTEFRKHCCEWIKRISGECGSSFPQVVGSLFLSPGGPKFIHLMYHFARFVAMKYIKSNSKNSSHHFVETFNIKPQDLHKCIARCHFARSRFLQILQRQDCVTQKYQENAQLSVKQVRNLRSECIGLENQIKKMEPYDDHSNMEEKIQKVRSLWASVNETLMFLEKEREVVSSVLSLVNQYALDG
T1 sequence (Q99871 1-299, chain 3 of 4): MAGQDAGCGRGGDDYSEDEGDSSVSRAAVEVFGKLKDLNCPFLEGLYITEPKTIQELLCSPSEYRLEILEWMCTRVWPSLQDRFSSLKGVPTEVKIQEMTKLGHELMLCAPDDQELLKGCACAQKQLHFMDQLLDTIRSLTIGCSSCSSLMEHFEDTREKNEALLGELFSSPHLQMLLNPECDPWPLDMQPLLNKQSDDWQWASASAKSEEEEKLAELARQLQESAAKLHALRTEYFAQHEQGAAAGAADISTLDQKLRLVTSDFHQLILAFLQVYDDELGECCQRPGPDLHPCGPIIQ
T1 sequence (Q9BT25 139-248, chain 4 of 4): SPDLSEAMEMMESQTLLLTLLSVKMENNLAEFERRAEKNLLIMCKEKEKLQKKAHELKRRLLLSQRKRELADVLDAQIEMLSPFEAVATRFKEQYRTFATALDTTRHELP
Description: pull-down; 25 μg recombinant EGFP-tagged Augmin TII N-clamp∆H8N added to lysate of HEK293 cells overexpressing POC5-HA or POC5^mut-HA, captured on GFP binder beads, 1 hr 4 °C; 50 mM Tris pH 7.5, 150 mM NaCl; HA blot. To be noted: one partner purified.

Data set [3] deals with the molecule itself. The data set is described as follows: cryo-EM structure; single particle analysis of the native γ-TuRC affinity-purified from X. laevis egg extract; particles with stoichiometric NEDD1/N-GCP3/MZT1 grapnel; AlphaFold2 models flexibly fitted (MDFF) into the density.

Here are results for 3 molecules from publication PMC11903878, “Structural mechanisms for centrosomal recruitment and organization of the microtubule nucleator γ-TuRC” (Nature Communications, 2025).

The term stoichiometry N denotes a count of units in the complex or per binding partner.

“X. laevis 2×FLAG-TEV-NEDD1-3C-GCP3(1–240)/ALFA-MZT1 complex (from UniProt O73787 1-240; Q5U4M5 1-72)” had a stoichiometry N in data set [1] of 4.

B1: POC5^mut-HA (S224E, R227A, K228A, V231A, S234K, L235A) (natural protein, human, UniProt Q8NA72 1-575, looked up)
chain: MSSDEEKYSLPVVQNDSSRGSSVSSNLQEEYEELLHYAIVTPNIEPCASQSSHPKGELVPDVRISTIHDILHSQGNNSEVRETAIEVGKGCDFHISSHSKTDESSPVLSPRKPSHPVMDFFSSHLLADSSSPATNSSHTDAHEILVSDFLVSDENLQKMENVLDLWSSGLKTNIISELSKWRLNFIDWHRMEMRKEKEKHAAHLKQLCNQINELKELQKTFEIEIGAADEAISKASHAIGKQKEKIELMRTFFHWRIGHVRARQDVYEGKLADQYYQRTLLKKVWKVWRSVVQKQWKDVVERACQARAEEVCIQISNDYEAKVAMLSGALENAKAEIQRMQHEKEHFEDSMKKAFMRGVCALNLEAMTIFQNRNDAGIDSTNNKKEEYGPGVQGKEHSAHLDPSAPPMPLPVTSPLLPSPPAAVGGASATAVPSAASMTSTRAASASSVHVPVSALGAGSAATAASEEMYVPRVVTSAQQKAGRTITARITGRCDFASKNRISSSLAIMGVSPPMSSVVVEKHHPVTVQTIPQATAAKYPRTIHPESSTSASRSLGTRSAHTQSLTSVHSIKVVD
notes: POC5, human, with six point mutations in the predicted POC5-Augmin interface; source: HEK293 (Tet-On 3G), overexpressed, in lysate; not shown: HA, C-terminal, kept
Take B1: in data set [2], the “fold reduction against wild-type” value amounted to 3 fold.

B2: NEDD1 (neural precursor cell expressed, developmentally down-regulated 1), X. laevis, endogenous (natural protein, X. laevis (endogenous in egg extract), UniProt A0A8J0Q0Y8 1-671, looked up)
chain: MESRGGGGRVRLPGTTMQDNIRFVSAGDDVKIWDYSSMTTVEQFNPHSASHPVSSLCWSSNNHFLVTASGSGDKIVVSSCKSKPVPLLELAEGKKQTCVNLNSSSQYVVSGGLDNTVNIWDLKSKRLHRSLKDHKDEVTCVTFNANDCYVASGSMSGEIILHNVTTNLSSTPFGHGSSQPIRHLKYSYVKKSLLGTVSDSGSVTLWDANSQNPYHVFESAHKAPASGICFSPVNDLLLVTVGLDKRIICYDVSSKILLQTVVAESPLTAVDFMPDGATLAVGSSRGKIYLYDLRMLSSPVKTVSAHKTSVQCIQFQHSNIYKSSKGPSSKSSILSTAVNKKPSTKTAAGGTQSANITKDLPPSAISSLPQPVMPVDSKVLRVNDDKSGFPRSTSLDIIPSKETDFAKTSDYKSIDSFGRSSLGDIFSPVRDDASHFRGAEDLSCKGNDLDYLPQFSTIPSSRRNPVGANTQGIHGSPLHLIIESPIKEEDESQDSELKTRKPQLLKQDFRESSSKPASVDQNNLNNSPINSVTRTPEAIEKTGHQILSQLKSDVPAHGTKIASPKVAATMSTQLASSLSEKIADTLASDRTGAPLTAIQINFIKNMIEETLDDFREACHRDIVNLQVEMIKQFHIQSSEIQMLLERYSLNESLVSEIEKLREENKRLRANF
notes: NEDD1, X. laevis, endogenous; NM_001094388.1 is printed for the cDNA of the recombinant constructs; also called NEDD1^C (its C-terminus); source: endogenous, X. laevis egg extract; co-purified with the γ-TuRC
As to B2, the “stoichiometry N” value in data set [3] came to 4.
